Data: paper PMC6927645, “Self-association of human beta-galactocerebrosidase: Dependence on pH, salt, and surfactant” (PLoS ONE, 2019)

Target: the molecule itself
Experiment: AUC; sedimentation velocity dilution series, 40,000 rpm, 20°C, Rayleigh optics; 5 mM sodium phosphate pH 6.0 with 50, 150 or 500 mM NaCl; Wide Distribution Analysis and fits in SedAnal; self-association of monomer to higher oligomers

B1: recombinant human galactocerebrosidase (hGALC) (enzyme, UniProt P54803 43-685, looked up)
chain: YVLDDSDGLGREFDGIGAVSGGGATSRLLVNYPEPYRSQILDYLFKPNFGASLHILKVEIGGDGQTTDGTEPSHMHYALDENYFRGYEWWLMKEAKKRNPNITLIGLPWSFPGWLGKGFDWPYVNLQLTAYYVVTWIVGAKRYHDLDIDYIGIWNERSYNANYIKILRKMLNYQGLQRVKIIASDNLWESISASMLLDAELFKVVDVIGAHYPGTHSAKDAKLTGKKLWSSEDFSTLNSDMGAGCWGRILNQNYINGYMTSTIAWNLVASYYEQLPYGRCGLMTAQEPWSGHYVVESPVWVSAHTTQFTQPGWYYLKTVGHLEKGGSYVALTDGLGNLTIIIETMSHKHSKCIRPFLPYFNVSQQFATFVLKGSFSEIPELQVWYTKLGKTSERFLFKQLDSLWLLDSDGSFTLSLHEDELFTLTTLTTGRKGSYPLPPKSQPFPSTYKDDFNVDYPFFSEAPNFADQTGVFEYFTNIEDPGEHHFTLRQVLNQRPITWAADASNTISIIGDYNWTNLTIKCDVYIETPDTGGVFIAGRVNKGGILIRSARGIFFWIFANGSYRVTGDLAGWIIYALGRVEVTAKKWYTLTLTIKGHFTSGMLNDKSLWTDIPVNFPKNGWAAIGTHSFEFAQFDNFLVEATR
modifications: heavily glycosylated; glycan structures not determined
notes: human galactocerebrosidase (GALC); The protein was recovered from the culture broth, and the computed 73 kDa protein moiety fits the precursor without its signal peptide (surmised); No tag is mentioned; also called human beta-galactocerebrosidase; galactocerebrosidase enzyme; source: virus filtration; ultrafiltration/diafiltration)
B1 was tested, and the “stoichiometry N” value was ≥ 4.
